Test [1] has as its target T1, Ebola Ivory Coast virus glycoprotein (GP) (Ebola virus, Ivory Coast strain, UniProt Q66810 33-676).
T1 sequence: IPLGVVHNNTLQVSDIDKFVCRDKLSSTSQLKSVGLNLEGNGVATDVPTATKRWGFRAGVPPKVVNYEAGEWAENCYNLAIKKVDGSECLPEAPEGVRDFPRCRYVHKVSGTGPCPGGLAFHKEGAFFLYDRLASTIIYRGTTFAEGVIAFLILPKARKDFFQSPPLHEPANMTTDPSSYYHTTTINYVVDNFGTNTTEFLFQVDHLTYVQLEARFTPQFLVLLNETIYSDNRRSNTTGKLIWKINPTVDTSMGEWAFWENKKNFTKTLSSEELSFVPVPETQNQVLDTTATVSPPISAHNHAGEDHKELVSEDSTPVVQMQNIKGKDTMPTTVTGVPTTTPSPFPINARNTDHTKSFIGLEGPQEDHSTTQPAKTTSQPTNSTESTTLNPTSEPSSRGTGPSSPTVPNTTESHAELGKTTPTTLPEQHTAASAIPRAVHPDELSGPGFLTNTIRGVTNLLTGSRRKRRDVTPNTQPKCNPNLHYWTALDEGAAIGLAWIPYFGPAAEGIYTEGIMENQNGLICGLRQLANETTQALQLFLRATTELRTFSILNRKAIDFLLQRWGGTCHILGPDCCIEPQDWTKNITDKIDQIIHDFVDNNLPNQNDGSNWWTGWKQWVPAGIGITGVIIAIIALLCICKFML
In words: ELISA on irradiated sucrose-purified virions. In general terms: An ELISA detects its analyte on a solid surface through an enzyme-linked reagent.

Test [2] deals with T2, Ebola Sudan (Boniface) virus glycoprotein (GP) (Ebola virus, Sudan strain (isolate …, UniProt Q66814 33-676)).
T2 sequence: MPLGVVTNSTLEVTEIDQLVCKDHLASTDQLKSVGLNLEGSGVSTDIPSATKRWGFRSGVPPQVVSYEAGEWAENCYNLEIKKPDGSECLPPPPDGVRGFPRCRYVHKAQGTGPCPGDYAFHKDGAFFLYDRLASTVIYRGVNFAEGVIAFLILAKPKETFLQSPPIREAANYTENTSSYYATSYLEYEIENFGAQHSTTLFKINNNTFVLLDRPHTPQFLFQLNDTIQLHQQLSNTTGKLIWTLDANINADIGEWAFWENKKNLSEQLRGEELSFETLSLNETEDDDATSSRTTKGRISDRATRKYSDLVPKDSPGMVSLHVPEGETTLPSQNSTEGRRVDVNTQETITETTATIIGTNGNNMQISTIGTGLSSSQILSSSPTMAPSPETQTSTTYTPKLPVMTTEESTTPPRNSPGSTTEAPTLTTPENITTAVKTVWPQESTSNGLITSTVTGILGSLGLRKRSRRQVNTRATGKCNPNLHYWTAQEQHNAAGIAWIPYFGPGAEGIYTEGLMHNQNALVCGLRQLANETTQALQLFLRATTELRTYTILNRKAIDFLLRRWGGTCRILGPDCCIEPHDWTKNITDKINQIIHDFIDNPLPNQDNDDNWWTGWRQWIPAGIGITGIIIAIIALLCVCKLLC
In words: ELISA on irradiated sucrose-purified virions.

The target in test [3] is T3, sGP (secreted glycoprotein) from EboGP-VRP-infected cells (Ebola virus, Zaire strain, Mayinga …, UniProt P60170 33-324).
T3 sequence: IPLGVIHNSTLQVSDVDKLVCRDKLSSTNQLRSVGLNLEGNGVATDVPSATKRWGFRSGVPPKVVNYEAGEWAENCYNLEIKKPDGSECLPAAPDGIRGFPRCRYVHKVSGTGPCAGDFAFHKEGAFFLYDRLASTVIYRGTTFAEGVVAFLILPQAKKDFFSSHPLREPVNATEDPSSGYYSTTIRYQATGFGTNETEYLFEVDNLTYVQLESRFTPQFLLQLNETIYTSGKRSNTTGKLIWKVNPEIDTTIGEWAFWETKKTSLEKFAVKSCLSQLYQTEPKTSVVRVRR
The test can be described thus: radioimmunoprecipitation from infected-cell supernatants.

The target in test [4] is T4, Ebola Zaire 1976 (Mayinga isolate) virus glycoprotein (GP) (Ebola virus, Zaire 1976 strain (isolate …, UniProt Q05320 33-676)).
T4 sequence: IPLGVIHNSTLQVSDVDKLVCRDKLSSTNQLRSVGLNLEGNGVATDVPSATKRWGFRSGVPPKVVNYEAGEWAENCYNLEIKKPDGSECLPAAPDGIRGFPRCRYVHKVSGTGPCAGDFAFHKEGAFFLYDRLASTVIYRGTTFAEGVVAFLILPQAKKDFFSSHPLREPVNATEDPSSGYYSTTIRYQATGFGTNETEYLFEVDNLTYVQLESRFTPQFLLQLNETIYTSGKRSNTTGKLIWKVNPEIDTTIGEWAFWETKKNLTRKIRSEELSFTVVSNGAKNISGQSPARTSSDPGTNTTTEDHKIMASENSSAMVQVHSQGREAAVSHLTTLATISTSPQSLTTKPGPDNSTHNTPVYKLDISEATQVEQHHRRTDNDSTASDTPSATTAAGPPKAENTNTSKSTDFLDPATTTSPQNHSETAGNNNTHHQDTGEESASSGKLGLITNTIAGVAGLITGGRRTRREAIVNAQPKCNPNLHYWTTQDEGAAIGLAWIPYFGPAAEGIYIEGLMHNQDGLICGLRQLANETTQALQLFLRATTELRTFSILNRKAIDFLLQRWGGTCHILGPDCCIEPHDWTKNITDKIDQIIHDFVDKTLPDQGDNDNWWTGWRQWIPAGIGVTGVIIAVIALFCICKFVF
In words: ELISA on virions.

B1: MAb EGP 13F6-1-2 (antibody, V domains shown)
VH: EVQVVESGGGLVKPGGSLKLSCAASGFAFSSYDMSWVRQTPEKRLEWVAYISRGGGYTYYPDTVKGRFTISRDNAKNTLYLQMSSLKSEDTAMYYCSRHIYYGSSHYYAMDYWGQGTSVTVSS
VL: QLVLTQSSSASFSLGASAKLTCTLSRQHSTYTIEWYQQQPLKPPRYVMELKKDGSHSTGDGIPDRFSGSSSGADRYLSISNIQPEDEAIYICGVGDTIKEQFVYVFGGGTKVTVLG
Consider B1, for which the binding result in test [1], in test [2] and in test [3] was “no binding” each time.

B2: MAb EGP 6D8-1-2 (antibody, V domains shown)
VH: DVKLLESGGGLVQPGGSLKLSCAASGFDFSRYWMSWVRQAPGKGLEWIGEINPDSSTINYTPSLKDKFIISRDNAKNTLYLQMSKVRSEDTALYYCTRQGYGYNYWGQGTTLIVSS
VL: DVLLTQIPLSLPVSLGDQASISCRSSQSIVHSNGNTYLEWYLQKPGQSPKLLIYKASNRFSGVPDRFSGSGSGTDFTLKINRVEAEDLGVYYCLQGSHVPSTFGGGTKLEIKR
Take B2: the binding result in test [4] is “binds”; in test [1], “no binding”; in test [2] it was “no binding”; in test [3], “no binding”.

These data come from patent publication US20040053865A1 (UNITED STATES OF AMERICA AS REPRESENTED BY THE SECRETARY OF …, published 2004).
